Consider 12 molecules from patent publication US20250376519A1 (JIANGSU HENGRUI PHARMACEUTICALS, published 2025).

As usually defined, the EC50 is the concentration needed to bring the measured effect to its halfway point. For orientation: Kd means the concentration at which binding is half-saturated. The term koff denotes a measure of how fast the partners let go of each other. A word on the kon: it is the rate constant with which the complex forms.

One experiment concerns the target T1, human DLL3 on cells (human, UniProt Q9NYJ7 27-618).
T1 construct: Endogenous on H1184 and SHP77; Cell line is named under assay; also called H1184; DLL3/H82
T1 sequence: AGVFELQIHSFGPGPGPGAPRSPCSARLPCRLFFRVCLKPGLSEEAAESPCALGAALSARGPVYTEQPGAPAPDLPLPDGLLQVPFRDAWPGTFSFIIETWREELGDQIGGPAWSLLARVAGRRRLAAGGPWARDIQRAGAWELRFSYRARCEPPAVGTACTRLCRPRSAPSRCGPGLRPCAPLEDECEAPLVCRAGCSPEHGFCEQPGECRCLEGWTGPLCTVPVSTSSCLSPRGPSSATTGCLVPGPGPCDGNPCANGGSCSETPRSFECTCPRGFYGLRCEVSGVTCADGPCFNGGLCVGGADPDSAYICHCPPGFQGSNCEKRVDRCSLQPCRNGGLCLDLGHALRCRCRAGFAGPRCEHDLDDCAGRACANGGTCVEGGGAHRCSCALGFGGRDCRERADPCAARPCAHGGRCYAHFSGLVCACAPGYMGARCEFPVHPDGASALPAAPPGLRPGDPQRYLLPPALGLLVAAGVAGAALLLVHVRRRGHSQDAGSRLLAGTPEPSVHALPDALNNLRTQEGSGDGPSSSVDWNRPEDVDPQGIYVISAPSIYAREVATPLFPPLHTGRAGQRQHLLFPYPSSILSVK
Nature of the experiment: flow cytometry, DLL3/H82 cells. On the set-up: key to Emax: geometric mean fluorescence intensity (flow cytometry). How it is done:
The plates were centrifuged at 300 g for 5 min, and the supernatant was removed. Different concentrations of test antibodies were added at 100 μL/well. The plates were incubated in the dark in a refrigerator at 4° C. for 1 h. After 3 centrifugal washes at 300 g, working concentrations of APC anti-human IgG Fc (BioLegend, 410712) or PE F(ab′)2-goat anti-human IgG (invitrogen, H10104) were added. The plates were incubated in the dark in a refrigerator at 4° C. for 40 min. After 3 centrifugal washes at 300 g, the geometric mean fluorescence intensity was measured on an Invitrogen flow cytometer, and the EC50 values for the binding of the antibodies to DLL3-expressing cells were calculated.
A general note: Flow cytometry measures light scatter and fluorescence of single cells or particles in a stream.

Experiment [1] deals with T2, human DLL3 (ACRO, DLL3-H52H4) (human, UniProt Q9NYJ7 27-492).
T2 construct: Bought
T2 sequence: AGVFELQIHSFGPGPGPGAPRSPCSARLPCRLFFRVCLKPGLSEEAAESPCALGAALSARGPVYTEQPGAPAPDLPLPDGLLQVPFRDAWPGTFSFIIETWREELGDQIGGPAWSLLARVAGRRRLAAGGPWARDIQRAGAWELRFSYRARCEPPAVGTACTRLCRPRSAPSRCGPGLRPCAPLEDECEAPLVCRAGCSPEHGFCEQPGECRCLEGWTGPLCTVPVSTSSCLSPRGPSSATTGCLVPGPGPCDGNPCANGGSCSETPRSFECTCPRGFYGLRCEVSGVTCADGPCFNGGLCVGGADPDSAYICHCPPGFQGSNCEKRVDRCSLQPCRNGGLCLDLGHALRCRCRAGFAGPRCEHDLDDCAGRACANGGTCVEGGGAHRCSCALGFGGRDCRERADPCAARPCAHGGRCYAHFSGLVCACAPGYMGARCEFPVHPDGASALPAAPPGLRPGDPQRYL
In words: SPR Biacore 8K, Ab captured on Protein A. The source says:
Test antibodies were affinity-captured with a Protein A biosensor chip (Cat. #29127556, Cytiva) for 18 seconds, and then the antigens human DLL3 (ACRO, DLL3-H52H4), cynomolgus monkey DLL3 (KACTUS, DLL-RM103), mouse DLL3 (KACTUS, DLL-MM103), human CD3D&3E (ACRO, CDD-H52W1), and monkey CD3D&3E (ACRO, CDD-C52W4) were allowed to flow through the surface of the chip for 180 seconds, followed by 600 seconds of dissociation. Reaction signals were detected in real time using a Biacore 8K (Cytiva) instrument to obtain association and dissociation curves. After the dissociation in each experimental cycle, the chip was washed and regenerated with a 10 mM glycine-hydrochloric acid solution (pH 1.5, Cat. #BR-1003-54, Cytiva). Data fitting was performed using a 1:1 Model.
(SPR reads the build-up and loss of mass on a sensor chip optically.)

B1: hu30L2H2 (antibody, human IgG1, kappa)
heavy: not shown
light: DIVMTQSPDSLAVSLGERATINCKASENVGYVSWYQQKPGQPPKLLIYGASNRYTGVPDRFSGSGSATDFTLTISSLQAEDVAVYHCGQSYSYPLTFGQGTKLEIKRTVAAPSVFIFPPSDEQLKSGTASVVCLLNNFYPREAKVQWKVDNALQSGNSQESVTEQDSKDSTYSLSSTLTLSKADYEKHKVYACEVTHQGLSSPVTKSFNRGEC
In the experiment with human DLL3 on cells, B1 had a 50% effective concentration (EC50) of 610 pM and an Emax of 4910. In experiment [1], binding was put at a Kd of 1010 pM, the koff turned out to be 0.000921 s⁻¹ and the kon came to 914000 M⁻¹ s⁻¹.

B2: hu30L2H4 (antibody, human IgG1, kappa, V domains shown)
VH: EVRLVQSGAEVKKPGASVKVSCKASGYTFTDYYMNWVRQAPGQSLEWMGIINPYSGDTSYNQKFRGRVTLTVDKSASTAYMELSSLRSEDTAVYYCARYHYGPHLEGYFDVWGQGTTVTVSS
VL: DIVMTQSPDSLAVSLGERATINCKASENVGYVSWYQQKPGQPPKLLIYGASNRYTGVPDRFSGSGSATDFTLTISSLQAEDVAVYHCGQSYSYPLTFGQGTKLEIKR
Turning to B2, in the experiment with human DLL3 on cells, the EC50 is 540 pM and the Emax stood at 5440. In experiment [1], the Kd was 1070 pM, the koff was determined as 0.00104 s⁻¹ and the kon was determined as 966000 M⁻¹ s⁻¹.

B3: hu30L2H3 (antibody, human IgG1, kappa, V domains shown)
VH: EVRLVQSGAEVKKPGASVKVSCKASGYTFTDYYMNWVRQAPGQSLEWMGIINPYQGDTSYNQKFRGRVTLTVDKSASTAYMELSSLRSEDTAVYYCARYHYGPHLEGYFDVWGQGTTVTVSS
VL: DIVMTQSPDSLAVSLGERATINCKASENVGYVSWYQQKPGQPPKLLIYGASNRYTGVPDRFSGSGSATDFTLTISSLQAEDVAVYHCGQSYSYPLTFGQGTKLEIKR
For the molecule B3, in the experiment with human DLL3 on cells, the concentration giving a half-maximal response (EC50) stood at 590 pM and the Emax was 4720. In experiment [1], this molecule gave a Kd of 1410 pM, an off-rate (koff) of 0.00138 s⁻¹ and a kon of 981000 M⁻¹ s⁻¹.

B4: hu30L1H3 (antibody, human IgG1, kappa, V domains shown)
VH: EVRLVQSGAEVKKPGASVKVSCKASGYTFTDYYMNWVRQAPGQSLEWMGIINPYQGDTSYNQKFRGRVTLTVDKSASTAYMELSSLRSEDTAVYYCARYHYGPHLEGYFDVWGQGTTVTVSS
VL: DIVMTQSPDSLAVSLGERATINCKASENVGYVSWYQQKPGQPPKLLIYGASNRYTGVPDRFSGSGSGTDFTLTISSLQAEDVAVYYCGQSYSYPLTFGQGTKLEIKR
In the experiment with human DLL3 on cells, B4 showed an EC50 of 750 pM and an Emax of 5560. Also, in experiment [1], the dissociation constant Kd was 1990 pM, the dissociation rate constant (koff) is 0.00185 s⁻¹ and the kon came out at 929000 M⁻¹ s⁻¹.

B5: hu30L2H5 (antibody, human IgG1, kappa, V domains shown)
VH: EVRLVQSGAEVKKPGASVKVSCKASGYTFTDYYMNWVRQAPGQSLEWMGIINPYTGDTSYNQKFRGRVTLTVDKSASTAYMELSSLRSEDTAVYYCARYHYGPHLEGYFDVWGQGTTVTVSS
VL: DIVMTQSPDSLAVSLGERATINCKASENVGYVSWYQQKPGQPPKLLIYGASNRYTGVPDRFSGSGSATDFTLTISSLQAEDVAVYHCGQSYSYPLTFGQGTKLEIKR
In the experiment with human DLL3 on cells, B5 yielded a concentration for a half-maximal effect (EC50) of 650 pM and an Emax of 5570. Further, in experiment [1], binding was put at a Kd of 969 pM, the dissociation rate constant (koff) turned out to be 0.000907 s⁻¹ and the kon was 935000 M⁻¹ s⁻¹.

B6: hu30L2H1 (antibody, human IgG1, kappa, V domains shown)
VH: EVQLVQSGAEVKKPGASVKVSCKASGYTFTDYYMNWVRQAPGQSLEWMGIINPYNGDTSYNQKFRGRVTITVDKSASTAYMELSSLRSEDTAVYYCARYHYGPHLEGYFDVWGQGTTVTVSS
VL: DIVMTQSPDSLAVSLGERATINCKASENVGYVSWYQQKPGQPPKLLIYGASNRYTGVPDRFSGSGSATDFTLTISSLQAEDVAVYHCGQSYSYPLTFGQGTKLEIKR
As for B6, in the experiment with human DLL3 on cells, the concentration giving a half-maximal response (EC50) stood at 890 pM and the Emax was found to be 5740. In experiment [1], this molecule returned an equilibrium dissociation constant (Kd) of 658 pM, a koff of 0.000571 s⁻¹ and a kon of 867000 M⁻¹ s⁻¹.

B7: hu30L2H6 (antibody, human IgG1, kappa, V domains shown)
VH: EVRLVQSGAEVKKPGASVKVSCKASGYTFTDYYMNWVRQAPGQSLEWMGIINPYNVDTSYNQKFRGRVTLTVDKSASTAYMELSSLRSEDTAVYYCARYHYGPHLEGYFDVWGQGTTVTVSS
VL: DIVMTQSPDSLAVSLGERATINCKASENVGYVSWYQQKPGQPPKLLIYGASNRYTGVPDRFSGSGSATDFTLTISSLQAEDVAVYHCGQSYSYPLTFGQGTKLEIKR
In the experiment with human DLL3 on cells, B7 displayed a half-maximal effective concentration (EC50) of 690 pM and an Emax of 5420. In experiment [1], this molecule displayed a Kd of 1080 pM, a koff of 0.000988 s⁻¹ and an on-rate constant (kon) of 915000 M⁻¹ s⁻¹.

B8: hu30L1H6 (antibody, human IgG1, kappa, V domains shown)
VH: EVRLVQSGAEVKKPGASVKVSCKASGYTFTDYYMNWVRQAPGQSLEWMGIINPYNVDTSYNQKFRGRVTLTVDKSASTAYMELSSLRSEDTAVYYCARYHYGPHLEGYFDVWGQGTTVTVSS
VL: DIVMTQSPDSLAVSLGERATINCKASENVGYVSWYQQKPGQPPKLLIYGASNRYTGVPDRFSGSGSGTDFTLTISSLQAEDVAVYYCGQSYSYPLTFGQGTKLEIKR
In the experiment with human DLL3 on cells, B8 registered a concentration giving a half-maximal response (EC50) of 560 pM and an Emax of 5750. Also, in experiment [1], binding was characterised by a dissociation constant (Kd) of 1380 pM, the koff came to 0.00143 s⁻¹ and the kon stood at 1.04e+06 M⁻¹ s⁻¹.

B9: hu30L1H1 (antibody, human IgG1, kappa, V domains shown)
VH: EVQLVQSGAEVKKPGASVKVSCKASGYTFTDYYMNWVRQAPGQSLEWMGIINPYNGDTSYNQKFRGRVTITVDKSASTAYMELSSLRSEDTAVYYCARYHYGPHLEGYFDVWGQGTTVTVSS
VL: DIVMTQSPDSLAVSLGERATINCKASENVGYVSWYQQKPGQPPKLLIYGASNRYTGVPDRFSGSGSGTDFTLTISSLQAEDVAVYYCGQSYSYPLTFGQGTKLEIKR
For the molecule B9, in the experiment with human DLL3 on cells, the response was half-maximal at 740 pM (EC50) and the Emax is 5870. In experiment [1], this molecule gave an equilibrium dissociation constant (Kd) of 919 pM, an off-rate constant (koff) of 0.000787 s⁻¹ and a kon of 857000 M⁻¹ s⁻¹.

B10: hu30L1H2 (antibody, human IgG1, kappa)
heavy: not shown
light: DIVMTQSPDSLAVSLGERATINCKASENVGYVSWYQQKPGQPPKLLIYGASNRYTGVPDRFSGSGSGTDFTLTISSLQAEDVAVYYCGQSYSYPLTFGQGTKLEIKRTVAAPSVFIFPPSDEQLKSGTASVVCLLNNFYPREAKVQWKVDNALQSGNSQESVTEQDSKDSTYSLSSTLTLSKADYEKHKVYACEVTHQGLSSPVTKSFNRGEC
In the experiment with human DLL3 on cells, B10 registered a concentration for a half-maximal effect (EC50) of 860 pM and an Emax of 6050. Further, in experiment [1], the equilibrium dissociation constant (Kd) came out at 1320 pM, the koff came out at 0.00131 s⁻¹ and the kon came out at 989000 M⁻¹ s⁻¹.

B11: hu30L1H4 (antibody, human IgG1, kappa, V domains shown)
VH: EVRLVQSGAEVKKPGASVKVSCKASGYTFTDYYMNWVRQAPGQSLEWMGIINPYSGDTSYNQKFRGRVTLTVDKSASTAYMELSSLRSEDTAVYYCARYHYGPHLEGYFDVWGQGTTVTVSS
VL: DIVMTQSPDSLAVSLGERATINCKASENVGYVSWYQQKPGQPPKLLIYGASNRYTGVPDRFSGSGSGTDFTLTISSLQAEDVAVYYCGQSYSYPLTFGQGTKLEIKR
In the experiment with human DLL3 on cells, B11 came in with an EC50 of 570 pM and an Emax of 5360. In experiment [1], this molecule showed a dissociation constant (Kd) of 1280 pM, an off-rate (koff) of 0.00116 s⁻¹ and a kon of 905000 M⁻¹ s⁻¹.

B12: hu30L2H7 (antibody, human IgG1, kappa)
heavy: not shown
light: DIVMTQSPDSLAVSLGERATINCKASENVGYVSWYQQKPGQPPKLLIYGASNRYTGVPDRFSGSGSATDFTLTISSLQAEDVAVYHCGQSYSYPLTFGQGTKLEIKRTVAAPSVFIFPPSDEQLKSGTASVVCLLNNFYPREAKVQWKVDNALQSGNSQESVTEQDSKDSTYSLSSTLTLSKADYEKHKVYACEVTHQGLSSPVTKSFNRGEC
In the experiment with human DLL3 on cells, B12 came in with a 50% effective concentration (EC50) of 830 pM and an Emax of 5580. In experiment [1], the affinity, expressed as Kd, was 1090 pM; the off-rate (koff) came to 0.000983 s⁻¹; the on-rate constant (kon) is 900000 M⁻¹ s⁻¹.
